Laboratory results from publication PMC5576371.

Target: Calmodulin (His-CaM) (UniProt P0DP23)
Assay: BLI; ForteBio Octet Red; increasing concentrations of ASPM IQ motif (GST-IQ) to CaM; 1:1 binding model; Kd calculated as Koff/Kon

Substance | fold increase of Kd against T. truncatus [fold] | Kd [nM]
GST-IQ fusion protein, ASPM 23rd IQ motif and its adjacent 16 amino acid motif, Physeter macrocephalus (domain or fragment) | 2.2 | –
GST-IQ fusion protein, ASPM 23rd IQ motif and its adjacent 16 amino acid motif, Tursiops truncatus (domain or fragment) | – | 17.7
